In publication PMC4897654, “hSSB1 (NABP2/OBFC2B) is regulated by oxidative stress” (Scientific Reports, 2016):

What was measured:
[1] = target: the molecule itself; test: non-reducing SDS-PAGE; recombinant hSSB1 proteins purified under non-reducing conditions, no reducing agent; Coomassie blue (2 μg) and anti-hSSB1 immunoblot (500 ng)
[2] = target: the molecule itself; test: SEC-MALS; non-reduced (oxidized) protein, ~200-250 μg on Superose 12 10/30; 20 mM Tris pH 7, 100 mM NaCl, 1 mM EDTA, without TCEP
[3] = target: the molecule itself; test: non-reducing SDS-PAGE with immunoblot; whole cell lysates of U2OS cells (2% O2) treated with 250 μM H2O2 or 30 mM KBrO3 for 30 min; loading buffer without DTT; probed for endogenous hSSB1

B1: recombinant C99S hSSB1 (natural protein, human, UniProt Q9BQ15 1-211, looked up)
chain: MTTETFVKDIKPGLKNLNLIFIVLETGRVTKTKDGHEVRTCKVADKTGSINISVWDDVGNLIQPGDIIRLTKGYASVFKGCLTLYTGRGGDLQKIGEFSMVYSEVPNFSEPNPEYSTQQAPNKAVQNDSNPSASQPTTGPSAASPASENQNGNGLSAPPGPGGGPHPPHTPSHPPSTRITRSQPNHTPAGPPGPSSNPVSNGKETRRSSKR
notes: human hSSB1 (NABP2/OBFC2B) with cysteine 99 mutated to serine; source: E. coli T7 shuffle strain, purified under non-reducing conditions
- binding result [1]: binds

B2: recombinant C81S hSSB1 (natural protein, human, UniProt Q9BQ15 1-211, looked up)
chain: MTTETFVKDIKPGLKNLNLIFIVLETGRVTKTKDGHEVRTCKVADKTGSINISVWDDVGNLIQPGDIIRLTKGYASVFKGSLTLYTGRGGDLQKIGEFCMVYSEVPNFSEPNPEYSTQQAPNKAVQNDSNPSASQPTTGPSAASPASENQNGNGLSAPPGPGGGPHPPHTPSHPPSTRITRSQPNHTPAGPPGPSSNPVSNGKETRRSSKR
notes: human hSSB1 (NABP2/OBFC2B) with cysteine 81 mutated to serine; source: E. coli T7 shuffle strain, purified under non-reducing conditions
- binding result [1]: binds

B3: recombinant hSSB1 (hexa-histidine tagged, wild type) (natural protein, human, UniProt Q9BQ15 1-211, looked up)
chain: MTTETFVKDIKPGLKNLNLIFIVLETGRVTKTKDGHEVRTCKVADKTGSINISVWDDVGNLIQPGDIIRLTKGYASVFKGCLTLYTGRGGDLQKIGEFCMVYSEVPNFSEPNPEYSTQQAPNKAVQNDSNPSASQPTTGPSAASPASENQNGNGLSAPPGPGGGPHPPHTPSHPPSTRITRSQPNHTPAGPPGPSSNPVSNGKETRRSSKR
notes: Oxidized and reduced preparations are the same construct; also called his-hSSB1; hSSB1 WT; source: E. coli T7 shuffle strain (Δgor ΔtrxB), purified (SP sepharose, Ni-NTA, Superdex200); without reducing agents ("oxidized") or with 1 mM DTT in all buffers ("reduced")
- stoichiometry N [2]: > 3
- stoichiometry N [1]: 2

B4: human single-stranded DNA binding protein 1 (hSSB1), endogenous (natural protein, human (endogenous in U2OS), UniProt Q9BQ15 1-211, looked up)
chain: MTTETFVKDIKPGLKNLNLIFIVLETGRVTKTKDGHEVRTCKVADKTGSINISVWDDVGNLIQPGDIIRLTKGYASVFKGCLTLYTGRGGDLQKIGEFCMVYSEVPNFSEPNPEYSTQQAPNKAVQNDSNPSASQPTTGPSAASPASENQNGNGLSAPPGPGGGPHPPHTPSHPPSTRITRSQPNHTPAGPPGPSSNPVSNGKETRRSSKR
notes: also called NABP2; OBFC2B; source: endogenous, U2OS whole cell lysate
- stoichiometry N [3]: ~4
